Reference: PMC10973363, “Insights into the modulation of bacterial NADase activity by phage proteins” (Nature Communications, 2024)
Where a chain is given by its changes, count along the chain named.

Tests used:
DSR2 K960A/D993A = molecular target: T1, DSR2 K960A/D993A (Bacillus subtilis 29R, UniProt P0DXN8 1-1005, K960A | D993A); experiment: pull-down; N-terminal His-tagged TTP or DSAD1 on Ni-NTA agarose beads, excess untagged DSR2 variants added, 1 h at 4 °C, 25 mM Tris-HCl pH 7.5, 300 mM NaCl, washes with 10 mM imidazole, SDS-PAGE with Coomassie staining; settings: both partners purified
T1 construct: DSR2 from Bacillus subtilis 29R, WP_029317421, with K960A and D993A; source: E. coli Rosetta (DE3), purified (Ni-NTA, TEV cleavage, anion exchange, gel filtration); not shown: His, N-terminal, cleaved; MBP, N-terminal, cleaved
T1 sequence (looked up): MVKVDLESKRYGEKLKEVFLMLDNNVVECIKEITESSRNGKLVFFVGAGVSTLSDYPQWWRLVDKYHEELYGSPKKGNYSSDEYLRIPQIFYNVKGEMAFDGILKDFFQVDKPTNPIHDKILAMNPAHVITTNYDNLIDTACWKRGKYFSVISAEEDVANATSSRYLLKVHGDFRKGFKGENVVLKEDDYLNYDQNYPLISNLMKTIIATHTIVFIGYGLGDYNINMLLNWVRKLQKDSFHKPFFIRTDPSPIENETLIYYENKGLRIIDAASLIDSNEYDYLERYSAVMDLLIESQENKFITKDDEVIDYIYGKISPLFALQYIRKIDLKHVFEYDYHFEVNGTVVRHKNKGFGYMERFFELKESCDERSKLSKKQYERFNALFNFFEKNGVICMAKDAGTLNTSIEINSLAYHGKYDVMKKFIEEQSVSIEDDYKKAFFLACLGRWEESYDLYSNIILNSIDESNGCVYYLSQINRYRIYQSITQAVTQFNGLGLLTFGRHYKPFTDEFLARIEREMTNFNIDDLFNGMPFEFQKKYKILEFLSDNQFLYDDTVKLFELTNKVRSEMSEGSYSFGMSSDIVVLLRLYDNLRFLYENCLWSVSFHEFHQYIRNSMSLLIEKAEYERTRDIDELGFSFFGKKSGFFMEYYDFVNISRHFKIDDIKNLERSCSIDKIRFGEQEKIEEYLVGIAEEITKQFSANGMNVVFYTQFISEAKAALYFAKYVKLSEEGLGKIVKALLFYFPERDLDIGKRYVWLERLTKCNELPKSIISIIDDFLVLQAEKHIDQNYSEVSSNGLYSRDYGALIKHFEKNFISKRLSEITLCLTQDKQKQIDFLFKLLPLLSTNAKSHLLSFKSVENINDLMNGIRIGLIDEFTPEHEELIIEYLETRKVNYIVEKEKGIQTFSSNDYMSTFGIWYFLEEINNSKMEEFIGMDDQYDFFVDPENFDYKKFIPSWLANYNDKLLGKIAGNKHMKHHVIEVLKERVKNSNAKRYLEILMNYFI

[1] = molecular target: T2, defense-associated sirtuin 2 (DSR2), full-length wild type (Bacillus subtilis 29R, UniProt P0DXN8 1-1005); experiment: AUC; sedimentation velocity, samples at 1 mg/mL in gel-filtration buffer (25 mM Tris-HCl pH 7.5, 150 mM NaCl, 2 mM DTT), SEDFIT and SEDPHAT; settings: both partners purified
T2 construct: DSR2 from Bacillus subtilis 29R, WP_029317421; Cloned into the 2CT-10 vector (Addgene plasmid #55209) with His-MBP tag and TEV site; DSR2-TTP was cloned into a pET-derived vector with an N-terminal His tag; also called WT DSR2; full-length DSR2; source: E. coli Rosetta (DE3), purified (Ni-NTA, TEV cleavage, anion exchange, gel filtration); not shown: His, N-terminal, cleaved; MBP, N-terminal, …
T2 sequence (looked up): T1 sequence (looked up) with A960K, A993D

B1: DSR anti-defense 1 (DSAD1), His-tagged (natural protein)
chain: MIEIFKDTGATHDLVYHSKINTFVWDVEFDIVLSDSKELNKCYFVKCFNPYRINGKCDFAVSSIDIFSEGKRLLIENEFNFKITKAVHVATSKDVTEIVLHLSERISSPFPIVKEVVYLD
notes: phage-encoded DSAD1, WP_004399562; aa 1-9 not built in the cryo-EM model; Cloned into a pET-derived vector with an N-terminal His tag; also called anti-DSR2 protein; His-tagged DSAD1; source: E. coli Rosetta (DE3), purified (Ni-NTA, anion exchange, gel filtration); not shown: His, N-terminal, kept
Q: Does B1 bind (DSR2 K960A/D993A)?
A: binds

Q: Does B1 bind [1]?
A: binds
